IntAct's records for PubMed 20708613

B1: Voltage-gated delayed rectifier potassium channel KCNH1 (Homo sapiens), O95259-2 (parent)
chain: MTMAGGRRGLVAPQNTFLENIVRRSNDTNFVLGNAQIVDWPIVYSNDGFCKLSGYHRAEVMQKSSTCSFMYGELTDKDTIEKVRQTFENYEMNSFEILMYKKNRTPVWFFVKIAPIRNEQDKVVLFLCTFSDITAFKQPIEDDSCKGWGKFARLTRALTSSRGVLQQLAPSVQKGENVHKHSRLAEVLQLGSDILPQYKQEAPKTPPHIILHYCVFKTTWDWIILILTFYTAILVPYNVSFKTRQNNVAWLVVDSIVDVIFLVDIVLNFHTTFVGPAGEVISDPKLIRMNYLKTWFVIDLLSCLPYDVINAFENVDEGISSLFSSLKVVRLLRLGRVARKLDHYIEYGAAVLVLLVCVFGLAAHWMACIWYSIGDYEIFDEDTKTIRNNSWLYQLAMDIGTPYQFNGSGSGKWEGGPSKNSVYISSLYFTMTSLTSVGFGNIAPSTDIEKIFAVAIMMIGSLLYATIFGNVTTIFQQMYANTNRYHEMLNSVRDFLKLYQVPKGLSERVMDYIVSTWSMSRGIDTEKVLQICPKDMRADICVHLNRKVFKEHPAFRLASDGCLRALAMEFQTVHCAPGDLIYHAGESVDSLCFVVSGSLEVIQDDEVVAILGKGDVFGDVFWKEATLAQSCANVRALTYCDLHVIKRDALQKVLEFYTAFSHSFSRNLILTYNLRKRIVFRKISDVKREEEERMKRKNEAPLILPPDHPVRRLFQRFRQQKEARLAAERGGRDLDDLDVEKGNVLTEHASANHSLVKASVVTVRESPATPVSFQAASTSGVPDHAKLQAPGSECLGPKGGGGDCAKRKSWARFKDACGKSEDWNKVSKAESMETLPERTKASGEATLKKTDSCDSGITKSDLRLDNVGEARSPQDRSPILAEVKHSFYPIPEQTLQATVLEVRHELKEDIKALNAKMTNIEKQLSEILRILTSRRSSQSPQELFEISRPQSPESERDIFGAS
partner: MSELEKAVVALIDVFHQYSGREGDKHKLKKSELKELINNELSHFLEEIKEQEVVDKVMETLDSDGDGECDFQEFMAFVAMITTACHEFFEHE

Variants of: B1
Conditions: with S100B

effect of a mutation on the interaction | Variant
disrupting interaction | F717S
disrupting interaction | F714S

Variants of: B1
Conditions: with S100B
Remark: another data set of the same source

effect of a mutation on the interaction | Variant
disrupting interaction | R677N
disrupting interaction | K682N
disrupting interaction | R681N
disrupting interaction | R675N
